Molecular target: the molecule itself
Test: cryo-EM structure; fibrils extracted from the frontal cortex of case 1 of PDD, pretreated with pronase for 30 min; helical reconstruction at 3.5 Å

B1: TMEM106B fibril (Type 1) extracted from the frontal cortex of case 1 of PDD (domain or fragment, human (endogenous in brain tissue), UniProt Q9NUM4 120-254, looked up)
chain: SIDVKYIGVKSAYVSYDVQKRTIYLNITNTLNITNNNYYSVEVENITAQVQFSKTVIGKARLNNITIIGPLDMKQIDYTVPTVIAEEMSYMYDFCTLISIKVHNIVLMMQVTVTTTYFGHSEQISQERYQYVDCG
modifications: four potentially glycosylated Asn residues
notes: Transmembrane protein 106B (TMEM106B), human, fibril core of residues 120-254 (luminal domain); Amyloid fibril with many stacked copies of the chain; the atomic model was built as three layers; Residues 120-254 are the ordered core seen by cryo-EM; also called Transmembrane protein 106B fibril; brain-extracted TMEM106B fibril; source: extracted from postmortem human brain (frontal lobe, case 1 of …)
binding result: binds

Source: PMC11749594, “Tracing TMEM106B fibril deposition in aging and Parkinson’s disease with dementia brains” (Life Medicine, 2024)
